Measured values as given in the supplement of paper PMC10567573.
± gives the standard deviation.

Assay: protein stability index of a GFP-peptide fusion (GPS, HEK-293T) (PSI 1-6); higher = more stable
[1] = treatment: DMSO, c terminus: a fixed tail appended
[2] = treatment: MLN4924 1 uM, 8 h, c terminus: a fixed tail appended
[3] = treatment: DMSO, c terminus: native
[4] = treatment: MLN4924 1 uM, 8 h, c terminus: native
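Further: 24-mer peptide tiles fused after GFP, lentivirally expressed, FACS-sorted into six equal bins by GFP/DsRed ratio, decoded by Illumina sequencing, PSI is the read-weighted mean bin number.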

| Sequence | protein stability index [1] | protein stability index [2] | protein stability index [3] | protein stability index [4] |
| --- | --- | --- | --- | --- |
| GMFTFLSSVTAAVSGLLVGYELGI [SLC2A12] | 2.891 ± 0.011 | 2.75 ± 0.86 |  |  |
| GMSLAKELIFSARVLDGKEAKAVG [AUH] | 3.45 ± 0.13 | 3.48 ± 0.17 |  |  |
| GNTIALFFRSLLPNYTMEGERPEE [TCF25] | 2.17 ± 0.62 | 2.72 ± 0.21 |  |  |
| GPGFHAGTSALWRHLRSAHRRELE [ZBED3] | 2.73 ± 0.34 | 3.13 ± 0.53 |  |  |
| GPGYWMCCHRSQKGFPGCKLGLHD [FBXO34] | 2.21 ± 0.44 | 2.11 ± 0.56 |  |  |
| GPQPTMEGDVLDTLEALGYKGPLL [FAM98B] | 4.18 ± 0.32 | 4.07 ± 0.38 |  |  |
| GPSRPAEKPPRPEAKSAQPADGWK [GCH1] | 5.17 ± 0.082 | 5.16 ± 0.18 |  |  |
| GPSTPSPVAAQFTSEGTTLSGVDL [FCHO1] | 5.2 ± 0.4 | 4.96 ± 0.53 |  |  |
| GQCQVLVQRSPWLMMRMGILGRGL [TCAP] | 2.2 ± 0.14 | 2.14 ± 0.16 |  |  |
| GQRGNTESKTDGDDTETVPSEQSH [TCF25] | 5.58 ± 0.21 | 5.54 ± 0.23 |  |  |
| GQRQPPPSEPTQGPEIVPRGAGP [DNAJC4] |  |  | 5.28 ± 0.51 | 5.49 ± 0.2 |
| GRCATRAFHRKSHSLDLNISEKLT [RNF180] | 3.73 ± 0.43 | 3.63 ± 0.42 |  |  |
| GRGVKKRLVLCMELANGKPQTRSG [ADAMTSL2] | 2.19 ± 0.56 |  |  |  |
| GRLEGLIQPDDLINQLTFIMDANQ [FAF2] | 2.8 ± 0.2 | 2.77 ± 0.5 |  |  |
| GRQPCGRFLRAYREGALRAALQRS [TRADD] | 2.56 ± 0.15 | 2.45 ± 0.4 |  |  |
| GRRVNAKMPVYSGSRPACQLQVPT [ELOA2] | 3.11 ± 0.32 | 3.49 ± 0.44 |  |  |
| GSIPGFLISSGMSSHKQGHTSSEY [TAF7L] | 3.25 ± 0.23 | 3.29 ± 0.29 |  |  |
| GSKFRYSGRTQAQTRRASALIDRP [EPB41L3] | 3.35 ± 0.41 | 3.44 ± 0.27 |  |  |
| GSQRARVVNTDHGSPEQLQIPVTD [SDE2] | 5.06 ± 0.22 | 4.98 ± 0.34 |  |  |
| GSRMMAVAALVVNFSQPVAGRPSL [NLN] | 3.1 ± 0.68 | 2.56 ± 1.2 |  |  |
| GTDIVRGCDPLVKPVGRQACDLQP [ADAMTSL2] | 4.08 ± 0.22 | 4.22 ± 0.059 |  |  |
| GTEFMQDPDEEHLKKSSQVPRTEA [PDLIM7] | 5.47 ± 0.12 | 5.23 ± 0.26 |  |  |

| Sequence | protein stability index [1] | protein stability index [2] | protein stability index [3] | protein stability index [4] |
| --- | --- | --- | --- | --- |
| GTHPEDHQGHSDQHHHHHHHHHGR [RHOBTB2] | 4.9 ± 0.16 | 5.01 ± 0.26 |  |  |
| GTIHALIFAWNKWIDIKQFVWYTP [STEAP1] | 3.28 ± 0.26 | 2.18 ± 0.11 |  |  |
| GTVPGQAPRLAVAVPAVTSADSQF [LYSMD4] | 4.46 ± 0.28 | 4.55 ± 0.17 |  |  |
| GVGKSAMTMQFISHRFPEDHDPTI [RIT1] | 3.4 ± 0.24 | 3.46 ± 0.37 |  |  |
| GVITTTPTPPGQYFYPRGGGSGGG [JUNB] | 4.14 ± 0.16 | 4.26 ± 0.095 |  |  |
| GVKLEGKVPMHKLFLEMLEAMMD [ESRRA] |  |  | 2.58 ± 0.74 | 2.66 ± 0.69 |
| GVLILFLTFFAFLHCWLNAFAEML [SOAT1] | 2.88 ± 0.4 | 2.85 ± 0.36 |  |  |
| GWLQHDFGHLSVFSTSKWNHLLHH [FADS1] | 2.04 ± 0.44 | 2.19 ± 0.29 |  |  |
| GWLSVSDDLTSVTNHGYRVQVENP [TRIM35] | 3.12 ± 0.17 | 3.24 ± 0.18 |  |  |
| GYAVNVFDIQQGFDNPQVRFFLGD [NSDHL] | 2.36 ± 0.38 | 2.57 ± 1.4 |  |  |
| GYELGIISGALLQIKTLLALSCHE [SLC2A12] | 3.61 ± 0.26 | 3.71 ± 0.1 |  |  |
| GYGGGLGAGFGGGLGAGFGGGFAG [KRT16] | 2.65 ± 0.38 | 2.47 ± 0.28 |  |  |
| GYQMLGNVVTIGLAFFPFLHRLFR [PHTF1] | 3.71 ± 0.23 | 3.68 ± 0.34 |  |  |
| HAASDPSSSSGRLSEPDPSHTLEE [SMOC2] | 5.31 ± 0.29 | 5.43 ± 0.15 |  |  |
| HAQTFVALCATDVKFISNPPSMVA [CCND1] | 2.11 ± 0.29 | 2.08 ± 0.46 |  |  |
| HARNGLSLKEEHRAYDLLRAASEN [IKZF1] | 3.73 ± 0.28 | 4.03 ± 0.35 |  |  |
| HCASPPPSSNNKELFYRVNYIGTK [NSDHL] | 3.18 ± 0.17 | 3.31 ± 0.19 |  |  |
| HDIDCQWVDITDVPPGDYLFQVVI [LOXL2] | 3.01 ± 0.2 | 2.92 ± 0.41 |  |  |
| HDYHGILVDEEEKVLIQKNLGPKS [ADD1] | 4.79 ± 0.33 | 4.9 ± 0.075 |  |  |
| HEDHMVNLRYGFTKEVMNKYKVHG [PPEF2] | 3.24 ± 0.51 | 3.58 ± 0.53 |  |  |
| HEPLSKERVEAFSDGVYAIVATLL [TMEM175] | 2.15 ± 0.28 | 2.15 ± 0.11 |  |  |
| HGASPGLRDGGGLTPLELLLRQLG [ANKRD9] | 2.66 ± 0.15 | 2.76 ± 0.35 |  |  |

| Sequence | protein stability index [1] | protein stability index [2] | protein stability index [3] | protein stability index [4] |
| --- | --- | --- | --- | --- |
| HGDSQQTHLLKQGRSSMGTGLSGG [CRY1] | 4.36 ± 0.16 | 4.43 ± 0.14 |  |  |
| HGGLYKPVQCHPSTGYCWCVLVDT [SMOC2] | 2.46 ± 0.86 | 2.39 ± 0.74 |  |  |
| HHHLHKTLREITDQEHNVAALKQA [TEKT4] | 4.35 ± 0.13 | 4.52 ± 0.11 |  |  |
| HHSTQPKRNKRNPIFQDSQDTEVF [FAM104B] | 4.19 ± 0.34 | 4.63 ± 0.27 |  |  |
| HKSHRGMTPAEAEMHFLENAKKLS [EPB41L3] | 4.38 ± 0.21 | 4.25 ± 0.47 |  |  |
| HLNGHAMCQTKHSPWADGTPCGPA [ADAMTS4] | 3.12 ± 0.35 | 3.11 ± 0.22 |  |  |
| HLVPEPDRLEEQLPWLSLRALKFR [DNAAF3] | 2.63 ± 0.1 | 2.78 ± 0.26 |  |  |
| HMGTNVIVANTMPTHLSNGQMSTP [HNF4A] | 3.6 ± 0.18 | 3.66 ± 0.33 |  |  |
| HMILENCSISKMEEEAGQTSIEPS [ZER1] | 5.14 ± 0.13 | 5.2 ± 0.18 |  |  |
| HNAHQLAAWCLHHICTNYNSVCSK [RHOBTB1] | 2.85 ± 0.55 | 2.79 ± 0.59 |  |  |
| HNAWLSYSLLPQSTAPGLFLVSTH [PCDHGC5] | 2.51 ± 0.58 | 2.63 ± 0.56 |  |  |
| HQLVMEGYNWCHDRNVVTIFSAPN [PPP2CA] | 2.51 ± 0.14 | 2.49 ± 0.18 |  |  |
| HTGDKPYKCAECGKSFCHSTHLTV [ZNF8] | 3.8 ± 0.12 | 3.85 ± 0.36 |  |  |
| HTPLISKSQSLRSVRRSESWARPR [RASAL3] | 3.45 ± 0.29 | 3.66 ± 0.22 |  |  |
| HTPQSSVKTSVPSSKSSGDLVDLF [CLINT1] | 4.03 ± 0.16 | 4.26 ± 0.053 |  |  |
| HTSVVCYLLDYPNNLLSAPPPDVT [ANKRD17] | 2.46 ± 0.39 | 2.26 ± 0.44 |  |  |
| HVPLLAEPSFAQFSQEIGLASLGA [TPH1] | 2.93 ± 0.26 | 3.09 ± 0.12 |  |  |
| HYEFNLSRMKFRGNGALSNISDLP [LCOR] | 2.7 ± 0.18 | 2.76 ± 0.23 |  |  |
| HYRELLDSLPMDAYTHGCILHPEL [GDAP1] | 2.36 ± 0.2 | 2.43 ± 0.034 |  |  |
| IDGIQAIYGRSQNPVQPIGPQTPK [MMP1] | 3.97 ± 0.074 | 4.07 ± 0.36 |  |  |
| IDLLTFLTGQKAVKVHGLLKTFVK [GFOD1] | 2.93 ± 0.62 | 2.67 ± 0.31 |  |  |
